± gives the uncertainty stated by the source.
Experiment: self-splicing fitness, log relative to wild type (ln ratio); higher = more splicing; Tetrahymena group I intron in knt gene, E. coli kanamycin selection, DiMSum; sequences stand for … in CUCUCU…GGAGGGAAAAGUUAUCAGGCAUGCACCUGGUAGCUAGUCUUUAAACCAAUAGAUUGCAUCGGUUUAAAAGGCAAGACCGUCAAAUUGCGGGAAAGGGGUCAACAGCCGUUCAGUACCAAGUCUCAGGGGAAACUUUGAGAUGGCCUUGCAAAGGGUAUGGUAAUAAGCUGACGGACAUGGUCCUAACCACGCAGCCAAGUCCUAAGUCAACAGAUCUUCUGUUGAUAUGGAUGCAGUUCACAGACUAAAUGUCGGUCGGGGAAGAUGUAUUCUUCUCAUAAGAUAUAGUCGGACCUCUCCUUAAUGGGAGCUAGCGGAUGAAGUGAUGCAACACUGGAGCCGCUGGGAACUAAUUUGUAUGCGAAAGUAUAUUGAUUAGUUUUGGAGUACUCGUGGUCG
Summary of the method: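 A randomised library covering all eight P1ex-region intron nucleotides was built with the intron in the knt kanamycin-resistance gene on pET-22b(+) and held in E. coli BL21(DE3). Cells were grown overnight at 37°C or 30°C on LB agar, with or without 25 μg/mL kanamycin, plus 100 μg/mL carbenicillin, 50 μM IPTG and 0.2% rhamnose, and pooled colonies were amplicon-sequenced on an Illumina HiSeq 2500. DiMSum fitness is the error-weighted combination of wild-type-normalised replicate fold changes, kanamycin versus none.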

Sequence | self-splicing fitness (ln) (30 °C) | self-splicing fitness (ln) (37 °C)
CACAAGCAAUAUUACGUAUC | -4.88 ± 0.25 | -2.19 ± 0.15
UUUAAGCAAUAUUACGCAUG | -1.07 ± 0.089 | -0.408 ± 0.099
UACUAGCAAUAUUACGACAU | -1.645 ± 0.014 | -0.715 ± 0.033
UGGGAGCAAUAUUACGACUA | -1.68 ± 0.35 | 0.369 ± 0.3
CAAUAGCAAUAUUACGAGCG | -0.254 ± 0.077 | 0.281 ± 0.098
UCACAGCAAUAUUACGACGA | -0.431 ± 0.071 | -0.228 ± 0.073
GUACAGCAAUAUUACGAAUU | -2.29 ± 0.16 | -1.69 ± 0.15
UCGCAGCAAUAUUACGUAAC | -3.25 ± 0.29 | -1.73 ± 0.23
ACUGAGCAAUAUUACGUCAC | -3.38 ± 0.17 | -2.75 ± 0.21
UCUAAGCAAUAUUACGGACG | -3.16 ± 0.22 | -1.95 ± 0.28
UCGGAGCAAUAUUACGUAAU |  | -1.86 ± 0.33
UUGAAGCAAUAUUACGACUU | -1.37 ± 0.14 | 0.101 ± 0.17
CCUGAGCAAUAUUACGCUUA | -2.31 ± 0.24 | -2.27 ± 0.39
ACCGAGCAAUAUUACGAUGA | -2.47 ± 0.17 | -2.73 ± 0.28
CGGGAGCAAUAUUACGCUUC |  | -2.21 ± 0.31
CCUAAGCAAUAUUACGACUC | -3.42 ± 0.38 | -2.04 ± 0.3
AUUGAGCAAUAUUACGUGUU | -3.91 ± 0.22 | -2.34 ± 0.14
ACCUAGCAAUAUUACGCGAG | -3.54 ± 0.15 | -1.55 ± 0.11
CUUUAGCAAUAUUACGCAUA | -3.68 ± 0.37 | 
ACGUAGCAAUAUUACGCACA | -0.463 ± 0.12 | -0.501 ± 0.13
UAUGAGCAAUAUUACGCGGG | -2.75 ± 0.3 | -1.6 ± 0.23
GCGUAGCAAUAUUACGGGGG | -3.87 ± 0.21 | -1.78 ± 0.17
UCCCAGCAAUAUUACGCGAC | -4.31 ± 0.29 | -3.36 ± 0.31
UUACAGCAAUAUUACGGCCA | -1.02 ± 0.12 | 0.128 ± 0.13
UUUGAGCAAUAUUACGCGAC | -2.15 ± 0.35 | 

Sequence | self-splicing fitness (ln) (30 °C) | self-splicing fitness (ln) (37 °C)
GUACAGCAAUAUUACGGACA | -2.13 ± 0.12 | -1.13 ± 0.1
GUGUAGCAAUAUUACGGGCG | -2.61 ± 0.27 | -1.21 ± 0.18
CACAAGCAAUAUUACGUACA | -3.03 ± 0.1 | -1.46 ± 0.1
GGAUAGCAAUAUUACGCGAG | -1.38 ± 0.15 | -1.16 ± 0.14
UCUAAGCAAUAUUACGAUUA | -2.61 ± 0.33 | -1.94 ± 0.34
UAACAGCAAUAUUACGUGCU | -3.33 ± 0.16 | -2.28 ± 0.16
AAAUAGCAAUAUUACGGCGG | -1.48 ± 0.086 | -0.335 ± 0.1
CGCGAGCAAUAUUACGGUUU | -4.02 ± 0.22 | -2.55 ± 0.18
GCGGAGCAAUAUUACGUGCG | -3.79 ± 0.35 | -2.55 ± 0.27
GAGGAGCAAUAUUACGUGGU | -4.05 ± 0.34 | -2.77 ± 0.33
ACUUAGCAAUAUUACGGGUU | -3.42 ± 0.19 | -3.29 ± 0.3
UGACAGCAAUAUUACGGCUA | -0.14 ± 0.079 | 0.942 ± 0.11
AUUGAGCAAUAUUACGCAAC | -3.42 ± 0.26 | -2.26 ± 0.39
UUUAAGCAAUAUUACGAUAU | -2.91 ± 0.14 | -1.52 ± 0.14
GCACAGCAAUAUUACGAGUA | -1.31 ± 0.084 | -0.881 ± 0.088
CGCGAGCAAUAUUACGGACC |  | -1.47 ± 0.31
GAGAAGCAAUAUUACGCGAA | -2 ± 0.11 | -1.93 ± 0.17
CUGAAGCAAUAUUACGCUGU | -3.65 ± 0.2 | -2.75 ± 0.24
ACUAAGCAAUAUUACGAACC | -0.514 ± 0.16 | -1.24 ± 0.24
CCAUAGCAAUAUUACGCCAG | -1.94 ± 0.14 | -0.423 ± 0.14
GUCCAGCAAUAUUACGAAAA | -1.1 ± 0.2 | -0.701 ± 0.13
UCUUAGCAAUAUUACGCAGU | -2.76 ± 0.22 | -1.05 ± 0.13
AUUUAGCAAUAUUACGCGGA | -1.73 ± 0.23 | -0.805 ± 0.17
GCUGAGCAAUAUUACGAAAC | -2.42 ± 0.17 | 0.274 ± 0.14
AAAUAGCAAUAUUACGGAAU | -3.69 ± 0.17 | -2.24 ± 0.16

Sequence | self-splicing fitness (ln) (30 °C) | self-splicing fitness (ln) (37 °C)
AAAUAGCAAUAUUACGUAAA | -1.61 ± 0.096 | -0.713 ± 0.11
AAGUAGCAAUAUUACGAUUG | -3.24 ± 0.28 | -0.999 ± 0.22
UCGAAGCAAUAUUACGUGAA | -2.53 ± 0.13 | -1.13 ± 0.12
UCAUAGCAAUAUUACGUGGC |  | -2.73 ± 0.43
GCAAAGCAAUAUUACGUUCA | -0.597 ± 0.064 | -0.534 ± 0.077
GAUAAGCAAUAUUACGUGGC | -3.32 ± 0.21 | -2.24 ± 0.27
UGUAAGCAAUAUUACGAACC | -0.477 ± 0.22 | 0.667 ± 0.32
GCAGAGCAAUAUUACGUAAA | -2.76 ± 0.19 | -3.33 ± 0.42
GGUUAGCAAUAUUACGACGG | -2.32 ± 0.17 | -1.33 ± 0.22
CUGCAGCAAUAUUACGCACU | -3.45 ± 0.2 | -0.783 ± 0.17
GAGUAGCAAUAUUACGUUAG | -3.69 ± 0.37 | -2.96 ± 0.34
UCCAAGCAAUAUUACGCGGG | -3.94 ± 0.24 | -3.8 ± 0.36
ACGUAGCAAUAUUACGGAAU | -2.29 ± 0.15 | -2.07 ± 0.17
ACUCAGCAAUAUUACGCCGG | -0.85 ± 0.074 | -0.683 ± 0.092
GACGAGCAAUAUUACGAGAU | -2.23 ± 0.3 | 
ACUAAGCAAUAUUACGCCGC | -3.02 ± 0.35 | -1.86 ± 0.41
UAAAAGCAAUAUUACGAUCG | 0.0746 ± 0.077 | 0.385 ± 0.1
AACUAGCAAUAUUACGACAA | -0.829 ± 0.064 | -0.603 ± 0.066
AGAUAGCAAUAUUACGGAUC | -1.92 ± 0.21 | -0.641 ± 0.2
CGUCAGCAAUAUUACGCAGU | -2.96 ± 0.2 | -2.12 ± 0.18
GGUAAGCAAUAUUACGCACU |  | -2.23 ± 0.2
GUUCAGCAAUAUUACGGCAC | -0.46 ± 0.21 | 0.473 ± 0.24
GCCGAGCAAUAUUACGUUGG | -3.55 ± 0.24 | -2.18 ± 0.27
GACAAGCAAUAUUACGAUCU | -0.884 ± 0.079 | -0.309 ± 0.097
UAAUAGCAAUAUUACGUACG | -2.13 ± 0.13 | -1.16 ± 0.17

Sequence | self-splicing fitness (ln) (30 °C) | self-splicing fitness (ln) (37 °C)
GCACAGCAAUAUUACGCGUA | -0.987 ± 0.094 | -0.173 ± 0.086
AUGUAGCAAUAUUACGUUUC | -2.86 ± 0.24 | -2.55 ± 0.26
AAUGAGCAAUAUUACGCCGC |  | -1.7 ± 0.42
GCCAAGCAAUAUUACGUAGA | -1.98 ± 0.064 | -1.26 ± 0.077
UUGUAGCAAUAUUACGAAAA | -1.86 ± 0.17 | -0.986 ± 0.19
GUGGAGCAAUAUUACGGCGC | -1.42 ± 0.27 | -0.0496 ± 0.26
GAAGAGCAAUAUUACGGGCG | -3.54 ± 0.37 | -2.84 ± 0.35
AACGAGCAAUAUUACGCAUG | -4.23 ± 0.31 | -2.76 ± 0.29
UAGGAGCAAUAUUACGACCG | 0.0998 ± 0.18 | -0.0128 ± 0.23
CCCUAGCAAUAUUACGCUUG | -3.94 ± 0.42 | -2.18 ± 0.28
AUCCAGCAAUAUUACGAUCG | -2.6 ± 0.2 | -3.02 ± 0.37
GCCGAGCAAUAUUACGCUUG | -3.71 ± 0.23 | -2.78 ± 0.24
CCUCAGCAAUAUUACGCUGU | -2.84 ± 0.17 | -2.05 ± 0.25
CGUGAGCAAUAUUACGUGUA | -3.18 ± 0.22 | -3.91 ± 0.31
GUCCAGCAAUAUUACGCGCG | -1.58 ± 0.093 | -0.665 ± 0.096
UCAAAGCAAUAUUACGGGAG | -4.12 ± 0.3 | -2.5 ± 0.19
GUGGAGCAAUAUUACGUGCU | -3.68 ± 0.2 | -3.09 ± 0.4
CUGUAGCAAUAUUACGCAGU | -2.29 ± 0.15 | -3.65 ± 0.33
ACGGAGCAAUAUUACGAAAU | -2.71 ± 0.22 | -1.76 ± 0.24
ACCAAGCAAUAUUACGCGCG | -1.5 ± 0.074 | -0.523 ± 0.081
CACUAGCAAUAUUACGCUAA | -3.33 ± 0.3 | -1.75 ± 0.19
GUACAGCAAUAUUACGCGUU | -2.61 ± 0.15 | -1.35 ± 0.14
CAAGAGCAAUAUUACGGUAA | -3.24 ± 0.23 | -2.14 ± 0.21
